From article PMC10397247
One block for each binder: values may come before it.

Tests used:
Core_INNN-es_KKKK = target: T1, Core_INNN-es_KKKK; assay: two-hybrid library CCmax; conditions: mean of both orientations;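 note: natural log of median RNA to DNA barcode read ratio; higher means stronger binding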
T1 chain: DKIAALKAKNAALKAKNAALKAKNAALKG

Core_INII-es_KEEE = target: T2, Core_INII-es_KEEE; assay: two-hybrid library CCmax; conditions: mean of both orientations;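 note: natural log of median RNA to DNA barcode read ratio; higher means stronger binding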
T2 chain: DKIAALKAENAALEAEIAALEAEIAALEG

Core_NIIN-es_KKKK = target: T3, Core_NIIN-es_KKKK; assay: two-hybrid library CCmax; conditions: mean of both orientations;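 note: natural log of median RNA to DNA barcode read ratio; higher means stronger binding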
T3 chain: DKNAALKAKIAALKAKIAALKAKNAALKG

Core_INNI-es_KEKE = target: T4, Core_INNI-es_KEKE; assay: two-hybrid library CCmax; conditions: mean of both orientations;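 note: natural log of median RNA to DNA barcode read ratio; higher means stronger binding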
T4 chain: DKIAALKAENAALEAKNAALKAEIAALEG

Core_ININ-es_KKEE = target: T5, Core_ININ-es_KKEE; assay: two-hybrid library CCmax; conditions: mean of both orientations;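 note: natural log of median RNA to DNA barcode read ratio; higher means stronger binding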
T5 chain: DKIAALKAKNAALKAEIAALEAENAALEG

4H166-bH = target: T6, 4H166-bH; assay: two-hybrid library CCNG1;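 note: natural log of median RNA to DNA barcode read ratio; higher means stronger binding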
T6 chain: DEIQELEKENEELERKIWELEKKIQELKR

4H2143-bH = target: T7, 4H2143-bH; assay: two-hybrid library CCNG1
T7 chain: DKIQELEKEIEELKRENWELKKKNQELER

4H2162-bH = target: T8, 4H2162-bH; assay: two-hybrid library CCNG1
T8 chain: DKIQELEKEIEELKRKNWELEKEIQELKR

4H2233-bH = target: T9, 4H2233-bH; assay: two-hybrid library CCNG1
T9 chain: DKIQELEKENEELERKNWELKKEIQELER

4H2253-bH = target: T10, 4H2253-bH; assay: two-hybrid library CCNG1
T10 chain: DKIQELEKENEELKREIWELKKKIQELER

4H235-bH = target: T11, 4H235-bH; assay: two-hybrid library CCNG1
T11 chain: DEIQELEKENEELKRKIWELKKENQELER

4H2444-bH = target: T12, 4H2444-bH; assay: two-hybrid library CCNG1
T12 chain: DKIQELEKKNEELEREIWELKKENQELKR

4H2518-bH = target: T13, 4H2518-bH; assay: two-hybrid library CCNG1
T13 chain: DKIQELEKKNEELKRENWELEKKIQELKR

4H2585-bH = target: T14, 4H2585-bH; assay: two-hybrid library CCNG1
T14 chain: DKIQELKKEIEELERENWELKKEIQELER

4H264-bH = target: T15, 4H264-bH; assay: two-hybrid library CCNG1
T15 chain: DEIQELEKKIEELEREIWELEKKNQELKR

4H2760-bH = target: T16, 4H2760-bH; assay: two-hybrid library CCNG1
T16 chain: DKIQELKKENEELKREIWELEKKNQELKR

4H2859-bH = target: T17, 4H2859-bH; assay: two-hybrid library CCNG1
T17 chain: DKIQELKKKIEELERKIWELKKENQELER

4H2931-bH = target: T18, 4H2931-bH; assay: two-hybrid library CCNG1
T18 chain: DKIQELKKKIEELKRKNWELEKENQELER

4H3041-bH = target: T19, 4H3041-bH; assay: two-hybrid library CCNG1
T19 chain: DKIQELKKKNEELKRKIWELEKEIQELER

4H3297-bH = target: T20, 4H3297-bH; assay: two-hybrid library CCNG1
T20 chain: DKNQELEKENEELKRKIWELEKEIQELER

4H3364-bH = target: T21, 4H3364-bH; assay: two-hybrid library CCNG1
T21 chain: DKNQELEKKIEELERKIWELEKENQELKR

4H3381-bH = target: T22, 4H3381-bH; assay: two-hybrid library CCNG1
T22 chain: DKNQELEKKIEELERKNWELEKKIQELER

4H349-bH = target: T23, 4H349-bH; assay: two-hybrid library CCNG1
T23 chain: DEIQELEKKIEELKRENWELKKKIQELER

4H56-bH = target: T24, 4H56-bH; assay: two-hybrid library CCNG1
T24 chain: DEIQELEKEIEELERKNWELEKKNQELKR

4H730-bH = target: T25, 4H730-bH; assay: two-hybrid library CCNG1
T25 chain: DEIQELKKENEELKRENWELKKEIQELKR

4H796-bH = target: T26, 4H796-bH; assay: two-hybrid library CCNG1
T26 chain: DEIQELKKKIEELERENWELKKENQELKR

4H932-bH = target: T27, 4H932-bH; assay: two-hybrid library CCNG1
T27 chain: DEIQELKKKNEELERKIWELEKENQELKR

4H949-bH = target: T28, 4H949-bH; assay: two-hybrid library CCNG1
T28 chain: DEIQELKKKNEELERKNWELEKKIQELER

4H967-bN = target: T29, 4H967-bN; assay: two-hybrid library CCNG1
T29 chain: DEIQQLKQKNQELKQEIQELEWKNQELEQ

Core_NIII-es_KKKK = target: T30, Core_NIII-es_KKKK; assay: two-hybrid library CCmax; conditions: mean of both orientations
T30 chain: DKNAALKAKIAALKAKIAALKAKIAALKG

P10bH1 = target: T31, P10bH1; assay: two-hybrid library CCNG1
T31 chain: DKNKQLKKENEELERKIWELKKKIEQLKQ

P11bH1 = target: T32, P11bH1; assay: two-hybrid library CCNG1
T32 chain: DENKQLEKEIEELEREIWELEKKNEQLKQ

P12bH1 = target: T33, P12bH1; assay: two-hybrid library CCNG1
T33 chain: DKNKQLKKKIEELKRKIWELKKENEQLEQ

P1bH1 = target: T34, P1bH1; assay: two-hybrid library CCNG1
T34 chain: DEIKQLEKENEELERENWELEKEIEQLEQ

P2bH1 = target: T35, P2bH1; assay: two-hybrid library CCNG1
T35 chain: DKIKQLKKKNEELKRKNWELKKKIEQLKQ

P3bH1 = target: T36, P3bH1; assay: two-hybrid library CCNG1
T36 chain: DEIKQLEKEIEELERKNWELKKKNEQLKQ

P4bH1 = target: T37, P4bH1; assay: two-hybrid library CCNG1
T37 chain: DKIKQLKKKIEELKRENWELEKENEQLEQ

P5bH1 = target: T38, P5bH1; assay: two-hybrid library CCNG1
T38 chain: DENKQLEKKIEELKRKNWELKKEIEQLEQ

P6bH1 = target: T39, P6bH1; assay: two-hybrid library CCNG1
T39 chain: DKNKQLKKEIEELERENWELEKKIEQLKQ

P7bH1 = target: T40, P7bH1; assay: two-hybrid library CCNG1
T40 chain: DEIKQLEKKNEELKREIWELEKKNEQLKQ

P8bH1 = target: T41, P8bH1; assay: two-hybrid library CCNG1
T41 chain: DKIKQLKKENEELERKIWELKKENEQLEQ

P9bH1 = target: T42, P9bH1; assay: two-hybrid library CCNG1
T42 chain: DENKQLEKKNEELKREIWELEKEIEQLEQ

Core_INNN-es_KKEK = target: T43, Core_INNN-es_KKEK; assay: two-hybrid library CCmax; conditions: mean of both orientations
T43 chain: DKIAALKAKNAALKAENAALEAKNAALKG

Core_INII-es_KEKK = target: T44, Core_INII-es_KEKK; assay: two-hybrid library CCmax; conditions: mean of both orientations
T44 chain: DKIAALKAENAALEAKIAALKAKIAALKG

Core_INNN-es_KKKE = target: T45, Core_INNN-es_KKKE; assay: two-hybrid library CCmax; conditions: mean of both orientations
T45 chain: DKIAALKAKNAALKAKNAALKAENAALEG

Core_INNI-es_KKEK = target: T46, Core_INNI-es_KKEK; assay: two-hybrid library CCmax; conditions: mean of both orientations
T46 chain: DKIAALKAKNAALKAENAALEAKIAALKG

Core_IINN-es_KEEK = target: T47, Core_IINN-es_KEEK; assay: two-hybrid library CCmax; conditions: mean of both orientations
T47 chain: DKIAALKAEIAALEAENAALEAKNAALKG

interaction score (Core_INNN-es_KKKK): 2.18
Binder: DEIAALEAENAALEAENAALEAENAALEG [Core_INNN-es_EEEE]

interaction score (Core_INNI-es_KEKE): 2.27
Binder: DEIAALEAKNAALKAENAALEAKIAALKG [Core_INNI-es_EKEK]

interaction score (Core_ININ-es_KKEE): 2.03
Binder: DEIAALEAENAALEAKIAALKAKNAALKG [Core_ININ-es_EEKK]

interaction score (4H166-bH): 0.0371 | interaction score (4H2143-bH): 0.23 | interaction score (4H2162-bH): 1.49 | interaction score (4H2233-bH): 0.81 | interaction score (4H2253-bH): 1.03 | interaction score (4H235-bH): -0.624 | interaction score (4H2444-bH): 0.192 | interaction score (4H2518-bH): 1.54 | interaction score (4H2585-bH): 0.621 | interaction score (4H264-bH): 0.0745 | interaction score (4H2760-bH): 0.896 | interaction score (4H2859-bH): 1.65 | interaction score (4H2931-bH): 1.25 | interaction score (4H3041-bH): 1.58 | interaction score (4H3297-bH): 1.62 | interaction score (4H3364-bH): -1.32 | interaction score (4H3381-bH): 0.522 | interaction score (4H349-bH): 0.968 | interaction score (4H56-bH): -1.05 | interaction score (4H730-bH): 0.00471 | interaction score (4H796-bH): 0.588 | interaction score (4H932-bH): 0.193 | interaction score (4H949-bH): 0.814 | interaction score (4H967-bN): -0.508
Binder: DEIQELEKENEELERKIWELEKKIQELKR [4H166-bH]

interaction score (Core_NIII-es_KKKK): 2.01
Binder: DENAALEAEIAALEAEIAALEAEIAALEG [Core_NIII-es_EEEE]

interaction score (Core_INII-es_KEKK): 1.83
Binder: DEIAALEAKNAALKAEIAALEAEIAALEG [Core_INII-es_EKEE]

interaction score (Core_INNN-es_KKKE): 2.01
Binder: DEIAALEAENAALEAENAALEAKNAALKG [Core_INNN-es_EEEK]

interaction score (Core_INNI-es_KKEK): 2.03
Binder: DEIAALEAENAALEAKNAALKAEIAALEG [Core_INNI-es_EEKE]

The next lines start with the binder.

Binder: DEIAALEAKNAALKAKIAALKAKIAALKG [Core_INII-es_EKKK]
interaction score (Core_INII-es_KEEE): 2.08

Binder: DENAALEAEIAALEAEIAALEAENAALEG [Core_NIIN-es_EEEE]
interaction score (Core_NIIN-es_KKKK): 1.68

Binder: DKNKQLKKENEELERKIWELKKKIEQLKQ [P10bH1]
interaction score (P10bH1): 0.178 | interaction score (P11bH1): 0.862 | interaction score (P12bH1): -0.838 | interaction score (P1bH1): 1.14 | interaction score (P2bH1): -1.33 | interaction score (P3bH1): 1.35 | interaction score (P4bH1): -0.889 | interaction score (P5bH1): -0.973 | interaction score (P6bH1): 0.126 | interaction score (P7bH1): 0.654 | interaction score (P8bH1): -0.375 | interaction score (P9bH1): 1.04

Binder: DEIAALEAENAALEAKNAALKAENAALEG [Core_INNN-es_EEKE]
interaction score (Core_INNN-es_KKEK): 1.84

Binder: DEIAALEAKIAALKAKNAALKAENAALEG [Core_IINN-es_EKKE]
interaction score (Core_IINN-es_KEEK): 1.87
